Assay results reported in article doi:10.1101/2025.09.04.674342, “Tandem association of CLOCK:BMAL1 complexes on DNA enables recruitment of CBP/p300 through multivalent interactions” (bioRxiv, 2025).

B1: BMAL1 TAD (residues 579–626) (domain or fragment)
chain: not shown
notes: numbers count on: isoform Q9WTL8-4; Used at natural abundance or uniformly 15N-labelled; also called 15N BMAL1 TAD; source: E. coli Rosetta (DE3), purified (Ni-NTA, TEV cleavage, Superdex 75); not shown: His6-NusA-XL (HNXL), N-terminal, cleaved
B2: BMAL1 TAD L606A/L607A (residues 579–626) (domain or fragment)
chain: not shown
notes: numbers count on: isoform Q9WTL8-4; Used at natural abundance or 15N-labelled; also called L606A/L607A TAD mutant; 15N BMAL1 TAD L606A/L607A; source: E. coli Rosetta (DE3), purified (Ni-NTA, TEV cleavage, Superdex 75); not shown: His6-NusA-XL (HNXL), N-terminal, cleaved
B3: CBP KIX domain (residues 586–672) (domain or fragment)
chain: not shown
notes: CBP KIX domain, mouse, UniProt P45481, residues 586–672; tagless; Plasmid was a gift from Peter Wright; Used at natural abundance or uniformly 15N-labelled; also called WT KIX; 15N CBP KIX; source: E. coli Rosetta (DE3), purified (Ni-NTA through native histidines, size exclusion)
B4: CBP TAZ2 domain (residues 1764–1855; C1776A, C1784A, C1827A, C1828A) (domain or fragment, mouse, UniProt P45481 1764-1855, looked up)
chain: SPQESRRLSIQRAIQSLVHAAQCRNANCSLPSCQKMKRVVQHTKGCKRKTNGGCPVCKQLIALAAYHAKHCQENKCPVPFCLNIKHKLRQQQ
notes: CBP TAZ2 domain, mouse, UniProt P45481, residues 1764–1855, with four cysteine to alanine mutations that increase solubility and stability; source: E. coli (BL21), purified (amylose sepharose, S-sepharose, Superdex 75)
B5: CLOCK:BMAL1 bHLH-PAS-AB heterodimer (complex)
chain 1: VEEDDKDKAKRVSRNKSEKKRRDQFNVLIKELGSMLPGNARKMDKSTVLQKSIDFLRKHKETTAQSDASEIRQDWKPTFLSNEEFTQLMLEALDGFFLAIMTDGSIIYVSESVTSLLEHLPSDLVDQSIFNFIPEGEHSEVYKILSTHLLESDSLTPEYLKSKNQLEFCCHMLRGTIDPKEPSTYEYVRFIGNFKSLTSVSTSTHNGFEGTIQRTHRPSYEDRVCFVATVRLATPQFIKEMCTVEEPNEEFTSRHSLEWKFLFLDHRAPPIIGYLPFEVLGTSGYDYYHVDDLENLAKCHEHLMQYGKGKSCYYRFLTKGQQWIWLQTHYYITYHQWNSRPEFIVCTHTVVSYAEVRAERRRELGIEESL
chain 2: not shown
notes: CLOCK bHLH PAS-AB, mouse, UniProtKB O08785, residues 26–395; BMAL1 bHLH PAS-AB, mouse, UniProtKB Q9WTL8-4, residues 62–441; numbers count on: isoform Q9WTL8-4; Purified on Ni-NTA and cleaved with His-TEV; also called CLOCK:BMAL1 protomer; source: insect cells (Spodoptera frugiperda or Hi5), purified (Ni-NTA, TEV cleavage, heparin, Superdex 200); copies: 1 + 1
B6: BMAL1 linker-switch peptide (residues 613–626) (peptide, UniProt Q9WTL8-4 613-626, looked up)
peptide: LGGPVDFSDLPWPL
notes: BMAL1, mouse, residues 613–626 (linker and switch of the TAD); numbers count on: isoform Q9WTL8-4; source: synthetic peptide (Pierce, 95% purity)
B7: [5,6] TAMRA-labeled BMAL1 minimal TAD peptide (residues 594–626), WT (peptide)
peptide: not shown
modifications: 5,6-TAMRA on the N-terminus; free carboxyl C-terminus
notes: BMAL1 minimal TAD with helix and switch regions, residues 594–626; numbers count on: isoform Q9WTL8-4; also called [5,6]; TAMRA-BMAL1 TAD probe; native TAD probe; source: synthetic peptide (Bio-Synthesis, 95% purity)
B8: trans-locked BMAL1 switch peptide P625A (FSDLPWAL) (peptide)
peptide: FSDLPWAL
notes: numbers count on: isoform Q9WTL8-4; All trans; also called P625A switch; trans-locked switch; source: synthetic peptide (solid phase, Fmoc chemistry; C18 HPLC)

What was measured:
[1] = target: B4; experiment: NMR titration; 15N-1H HSQC of 100 μM 15N BMAL1 TAD WT or L606A/L607A with stepwise additions of CBP KIX (WT or 3mut), TAZ1 or TAZ2; 25°C; 10 mM MES pH 6.5, 50 mM NaCl, 10% D2O; KD from fits of concentration-dependent CSPs, apparent; conditions: both partners purified
[2] = target: B3; experiment: ITC; 220–230 μM CBP KIX WT or 3mut titrated into 20–25 μM BMAL1 TAD WT or L606A/L607A; 25°C; 10 mM MES pH 6.5, 50 mM NaCl; one-site model; conditions: both partners purified
[3] = target: B1; experiment: as above; conditions: both partners purified
[4] = target: B7; experiment: fluorescence polarisation; CBP KIX, TAZ1 or TAZ2 titrated onto [5,6] TAMRA-labeled BMAL1 minimal TAD probes (25 nM in the legend, 50 nM in the methods); 10 mM MES pH 6.5, 50 mM NaCl, 0.05% Tween-20; room temperature; one-site specific binding with Hill coefficient; apparent KDs; conditions: both partners purified
[5] = target: the molecule itself; experiment: cryo-EM structure; two CLOCK:BMAL1 bHLH-PAS-AB protomers on a nucleosome with tandem E-boxes 6 bp apart (SHL +3.9/+5.1); GraFix glutaraldehyde cross-linked; 4.1 Å overall, 8–12 Å in the PAS region
[6] = target: B3; experiment: NMR titration; 15N-1H HSQC of 100 μM 15N CBP KIX with stepwise additions of natural abundance BMAL1 TAD or truncated peptides; 25°C; 10 mM MES pH 6.5, 50 mM NaCl, 10% D2O; conditions: both partners purified
[7] = target: B4; experiment: fluorescence polarisation; CBP KIX, TAZ1 or TAZ2 titrated onto [5,6] TAMRA-labeled BMAL1 minimal TAD probes (25 nM in the legend, 50 nM in the methods); 10 mM MES pH 6.5, 50 mM NaCl, 0.05% Tween-20; room temperature; one-site specific binding with Hill coefficient; apparent KDs; conditions: both partners purified

B1
binding result [1]: binds | Kd [2]: ~2000 nM

B2
binding result [1]: binds

B3
stoichiometry N [3]: 0.8 to 1.1

B4
fold lower affinity than TAZ1 [4]: ~20 fold

B5
binding result [5]: binds

B6
binding result [6]: binds

B7
binding result [7]: binds

B8
binding result [6]: binds
